Source: the supplement of paper PMC7125110
± gives the standard error. Variants at the floor of the assay were thinned out.

B1: glmS ribozyme (parent)
chain: AUAAAAGCGCCAGAACUACAGAAAUGUAGUUGACGAGGAGGAGGUUUAUCGAAUUUUCGGCGGAUGCCUCCAAA

Experiments:
Settings in all cases: with glucosamine-6-phosphate
glucosamine-6-phosphate [1] = variants of: B1; assay: self-cleavage kobs at 640 uM GlcN6P; higher = faster cleavage; RNA array
Summary of the method: (§1)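 Ribozyme variants carrying barcodes were transcribed in situ on sequenced MiSeq chips by E. coli RNA polymerase and tracked at 37 °C with a hybridised Cy3 probe. They were exposed to 40 μM to 10 mM glucosamine-6-phosphate in HEPES/KCl/Mg(OAc)2 buffer. kobs came from exponential decay fits of normalised per-tile medians, and kcat and KM from weighted Michaelis–Menten fits.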

glucosamine-6-phosphate [2] = variants of: B1; assay: self-cleavage kobs at 2500 uM GlcN6P; higher = faster cleavage; RNA array
Summary of the method: as §1

glucosamine-6-phosphate [3] = variants of: B1; assay: self-cleavage kobs at 10000 uM GlcN6P; higher = faster cleavage; RNA array
Summary of the method: as §1

Q: How did the “self-cleavage kobs at 640 uM GlcN6P” value (glucosamine-6-phosphate [1]) turn out when C34G G43C A52G was run?
A: < 1e-05 s⁻¹

Q: And the “self-cleavage kobs at 2500 uM GlcN6P” value (glucosamine-6-phosphate [2])?
A: < 1e-05 s⁻¹

Q: With C8U G9U G13U G41U A42U C50G C68U as the variant, how does the “self-cleavage kobs at 640 uM GlcN6P” value (glucosamine-6-phosphate [1]) read?
A: < 1e-05 s⁻¹

Q: And the “self-cleavage kobs at 2500 uM GlcN6P” value (glucosamine-6-phosphate [2])?
A: < 1e-05 s⁻¹

Q: How did the “self-cleavage kobs at 640 uM GlcN6P” value (glucosamine-6-phosphate [1]) turn out when A42C U54A U65C was run?
A: < 1e-05 s⁻¹

Q: G32C A33G G35A C61A was tested. Which “self-cleavage kobs at 640 uM GlcN6P” value (glucosamine-6-phosphate [1]) did it give?
A: < 1e-05 s⁻¹

Q: With C8G G60A C61G as the variant, how does the “self-cleavage kobs at 640 uM GlcN6P” value (glucosamine-6-phosphate [1]) read?
A: < 1e-05 s⁻¹

Q: What about the “self-cleavage kobs at 2500 uM GlcN6P” value (glucosamine-6-phosphate [2]) of the same variant?
A: < 1e-05 s⁻¹

Q: Which “self-cleavage kobs at 640 uM GlcN6P” value (glucosamine-6-phosphate [1]) does the source give for C11A G35C C50U C58U here?
A: < 1e-05 s⁻¹

Q: What about the “self-cleavage kobs at 2500 uM GlcN6P” value (glucosamine-6-phosphate [2]) of the same variant?
A: < 1e-05 s⁻¹

Q: Which “self-cleavage kobs at 640 uM GlcN6P” value (glucosamine-6-phosphate [1]) does the source give for C11G A33U C58U here?
A: < 1e-05 s⁻¹

Q: How did the “self-cleavage kobs at 640 uM GlcN6P” value (glucosamine-6-phosphate [1]) turn out when A6U G29C A48U was run?
A: < 1e-05 s⁻¹

Q: What does the source list for C10A A12U G29A A39G A52G C67G?
A: self-cleavage kobs at 640 uM GlcN6P (glucosamine-6-phosphate [1]): 0.000283 ± 8.4e-05 s⁻¹; self-cleavage kobs at 2500 uM GlcN6P (glucosamine-6-phosphate [2]): 0.000236 ± 7.4e-05 s⁻¹

Q: With C34G G37U A39G C58U C61G as the variant, how does the “self-cleavage kobs at 640 uM GlcN6P” value (glucosamine-6-phosphate [1]) read?
A: 0.00305 ± 0.001 s⁻¹

Q: With G7A G37A G66U as the variant, how does the “self-cleavage kobs at 640 uM GlcN6P” value (glucosamine-6-phosphate [1]) read?
A: < 1e-05 s⁻¹

Q: What about the “self-cleavage kobs at 2500 uM GlcN6P” value (glucosamine-6-phosphate [2]) of the same variant?
A: < 1e-05 s⁻¹

Q: How did the “self-cleavage kobs at 640 uM GlcN6P” value (glucosamine-6-phosphate [1]) turn out when C10A G41C C58U was run?
A: < 1e-05 s⁻¹

Q: How did the “self-cleavage kobs at 640 uM GlcN6P” value (glucosamine-6-phosphate [1]) turn out when A15U U31C A39C was run?
A: 4.66e-05 ± 1.3e-05 s⁻¹

Q: And the “self-cleavage kobs at 2500 uM GlcN6P” value (glucosamine-6-phosphate [2])?
A: 0.000126 ± 2.4e-05 s⁻¹

Q: Which results are given for A39U A48G G60C?
A: self-cleavage kobs at 640 uM GlcN6P (glucosamine-6-phosphate [1]): < 1e-05 s⁻¹; self-cleavage kobs at 2500 uM GlcN6P (glucosamine-6-phosphate [2]): < 1e-05 s⁻¹

Q: For C10A A14C C67U C68A, which “self-cleavage kobs at 640 uM GlcN6P” value (glucosamine-6-phosphate [1]) is on record?
A: 0.0002 ± 7e-05 s⁻¹

Q: How did the “self-cleavage kobs at 640 uM GlcN6P” value (glucosamine-6-phosphate [1]) turn out when G43C U46G U56G was run?
A: < 1e-05 s⁻¹

Q: C8G G32A A53G was tested. Which “self-cleavage kobs at 640 uM GlcN6P” value (glucosamine-6-phosphate [1]) did it give?
A: < 1e-05 s⁻¹

Q: What does the source list for G35A G43C C68A?
A: self-cleavage kobs at 640 uM GlcN6P (glucosamine-6-phosphate [1]): < 1e-05 s⁻¹; self-cleavage kobs at 2500 uM GlcN6P (glucosamine-6-phosphate [2]): < 1e-05 s⁻¹

Q: What does the source list for A12U A53G U56C?
A: self-cleavage kobs at 640 uM GlcN6P (glucosamine-6-phosphate [1]): 0.00708 ± 0.0025 s⁻¹; self-cleavage kobs at 2500 uM GlcN6P (glucosamine-6-phosphate [2]): 0.0149 ± 0.0066 s⁻¹

Q: For U47A C50G C67U C71A, which “self-cleavage kobs at 640 uM GlcN6P” value (glucosamine-6-phosphate [1]) is on record?
A: 0.000221 ± 0.00011 s⁻¹

Q: And the “self-cleavage kobs at 10000 uM GlcN6P” value (glucosamine-6-phosphate [3])?
A: 0.000134 ± 2.8e-05 s⁻¹

Q: For A6G A48U C61U, which “self-cleavage kobs at 640 uM GlcN6P” value (glucosamine-6-phosphate [1]) is on record?
A: < 1e-05 s⁻¹

Q: What about the “self-cleavage kobs at 2500 uM GlcN6P” value (glucosamine-6-phosphate [2]) of the same variant?
A: < 1e-05 s⁻¹

Q: How did the “self-cleavage kobs at 640 uM GlcN6P” value (glucosamine-6-phosphate [1]) turn out when C11A A15G G32C A33U was run?
A: < 1e-05 s⁻¹

Q: Which “self-cleavage kobs at 640 uM GlcN6P” value (glucosamine-6-phosphate [1]) does the source give for G9A C11A A39U G41A A42U C50A U57G here?
A: < 1e-05 s⁻¹

Q: And the “self-cleavage kobs at 2500 uM GlcN6P” value (glucosamine-6-phosphate [2])?
A: < 1e-05 s⁻¹

Q: How did the “self-cleavage kobs at 640 uM GlcN6P” value (glucosamine-6-phosphate [1]) turn out when G38U U45G G51A was run?
A: < 1e-05 s⁻¹

Q: And the “self-cleavage kobs at 2500 uM GlcN6P” value (glucosamine-6-phosphate [2])?
A: < 1e-05 s⁻¹

Q: For U31G C58G C70G, which “self-cleavage kobs at 640 uM GlcN6P” value (glucosamine-6-phosphate [1]) is on record?
A: 0.000104 ± 3.4e-05 s⁻¹

Q: What does the source list for G7A A39G U49C U69A?
A: self-cleavage kobs at 640 uM GlcN6P (glucosamine-6-phosphate [1]): < 1e-05 s⁻¹; self-cleavage kobs at 2500 uM GlcN6P (glucosamine-6-phosphate [2]): < 1e-05 s⁻¹; self-cleavage kobs at 10000 uM GlcN6P (glucosamine-6-phosphate [3]): < 1e-05 s⁻¹

Q: How did the “self-cleavage kobs at 640 uM GlcN6P” value (glucosamine-6-phosphate [1]) turn out when G13U U45G C67G was run?
A: < 1e-05 s⁻¹

Q: U45A U57A was tested. Which “self-cleavage kobs at 640 uM GlcN6P” value (glucosamine-6-phosphate [1]) did it give?
A: 0.000159 ± 4.5e-05 s⁻¹

Q: What about the “self-cleavage kobs at 2500 uM GlcN6P” value (glucosamine-6-phosphate [2]) of the same variant?
A: 0.000423 ± 7.9e-05 s⁻¹

Q: For A15U G29A C68U, which “self-cleavage kobs at 640 uM GlcN6P” value (glucosamine-6-phosphate [1]) is on record?
A: 5.07e-05 ± 1.3e-05 s⁻¹

Q: What about the “self-cleavage kobs at 2500 uM GlcN6P” value (glucosamine-6-phosphate [2]) of the same variant?
A: 7.12e-05 ± 2.1e-05 s⁻¹

Q: How did the “self-cleavage kobs at 640 uM GlcN6P” value (glucosamine-6-phosphate [1]) turn out when U30C U49G U55C was run?
A: < 1e-05 s⁻¹

Q: Which “self-cleavage kobs at 640 uM GlcN6P” value (glucosamine-6-phosphate [1]) does the source give for A6U C16U U47A here?
A: 6.84e-05 ± 2.1e-05 s⁻¹

Q: And the “self-cleavage kobs at 2500 uM GlcN6P” value (glucosamine-6-phosphate [2])?
A: 0.000103 ± 3.5e-05 s⁻¹

Q: What does the source list for G44A U45C C61A?
A: self-cleavage kobs at 640 uM GlcN6P (glucosamine-6-phosphate [1]): < 1e-05 s⁻¹; self-cleavage kobs at 2500 uM GlcN6P (glucosamine-6-phosphate [2]): < 1e-05 s⁻¹

Q: For G35C G38A C68G, which “self-cleavage kobs at 640 uM GlcN6P” value (glucosamine-6-phosphate [1]) is on record?
A: 0.00152 ± 0.00066 s⁻¹
